Target: SEV-9 peptide (Sendai virus nucleoprotein 324-332) (Sendai virus)

B1: soluble H-2K^b (K^bsol), empty heterodimer of truncated K^b heavy chain and murine β-2 microglobulin (other)
alpha: GPHSLRYFVTAVSRPGLGEPRYMEVGYVDDTEFVRFDSDAENPRYEPRARWMEQEGPEYWERETQKAKGNEQSFRVDLRTLLGYYNQSKGGSHTIQVISGCEVGSDGRLLRGYQQYAYDGCDYIALNEDLKTWTAADMAALITKHKWEQAGEAERLRAYLEGTCVEWLRRYLKNGNATLLRTDSPKAHVTHHSRPEDKVTLRCWALGFYPADITLTWQLNGEELIQDMELVETRPAGDGTFQKWASVVVPLGKEQYYTCHVYHQGLPEPLTLRW
beta: IQKTPQIQVYSRHPPENGKPNILNCYVTQFHPPHIEIQMLKNGKKIPKVEMSDMSFSKDWSFYILAHTEFTPTETDTYACRVKHASMAEPKTVYWDRDM
  Kd: 2.7 nM

From patent US6461867
